Results reported in patent US20210324417A1 (RESEARCH INSTITUTE AT NATIONWIDE CHILDREN S HOSPITAL, published 2021).

Molecular target: neuropilin-1 (NRP1) (mouse (endogenous protein of the mouse …, UniProt P97333 22-923))
Assay: co-immunoprecipitation with anti-NRP1 antibody from NSC-34 lysates, anti-V5 Western blot
Protocol: Cells were grown to 70% confluency before transfection. A human wild-type, P234KY, or ΔETAQ GARS cDNA was cloned into the pcDNA6 plasmid to express GARS in-frame with a V5 tag. Transfections were performed using Lipofectamine 2000 (Invitrogen) according to the manufacturer's instruction. For cell lysate preparations, NSC-34 cells (36 hours after transfection) were washed twice in phosphate-buffered saline (PBS), scraped into PBS, pelleted, and resuspended in Pierce IP Lysis Buffer (Thermo Scientific) for 30 min and centrifuged for 7 min at 12,000×g; the insoluble fraction was discarded. Protein G beads (Invitrogen) were pre-incubated with anti-NRP1 antibody (Abcam) or rabbit IgG (Cell signaling) for 30 min before mixed with the cell lysates for overnight. […] Wild-type and mutant GARS proteins were detected using mouse monoclonal V5 antibody purchased from Invitrogen. NRP1 was detected by utilizing the same antibody for co-immunoprecipitation. […]
After immunoprecipitation with an anti-NRP1 antibody, proteins were subjected to Western blot analysis using an anti-V5 antibody. […] Nevertheless, no interaction between ΔETAQ GARS and NRP1 was detected in unbiased mass spectrometry analyses of proteins immuno-precipitated from mouse neuroblastoma (MN1) cells expressing FLAG-tagged wild-type or V5-tagged ΔETAQ GARS.

- binding result: no binding
B1: V5-tagged wild-type human GARS (glycyl-tRNA synthetase) (enzyme, UniProt P41250-2 1-685, looked up)
chain: MDGAGAEEVLAPLRLAVRQQGDLVRKLKEDKAPQVDVDKAVAELKARKRVLEAKELALQPKDDIVDRAKMEDTLKRRFFYDQAFAIYGGVSGLYDFGPVGCALKNNIIQTWRQHFIQEEQILEIDCTMLTPEPVLKTSGHVDKFADFMVKDVKNGECFRADHLLKAHLQKLMSDKKCSVEKKSEMESVLAQLDNYGQQELADLFVNYNVKSPITGNDLSPPVSFNLMFKTFIGPGGNMPGYLRPETAQGIFLNFKRLLEFNQGKLPFAAAQIGNSFRNEISPRSGLIRVREFTMAEIEHFVDPSEKDHPKFQNVADLHLYLYSAKAQVSGQSARKMRLGDAVEQGVINNTVLGYFIGRIYLYLTKVGISPDKLRFRQHMENEMAHYACDCWDAESKTSYGWIEIVGCADRSCYDLSCHARATKVPLVAEKPLKEPKTVNVVQFEPSKGAIGKAYKKDAKLVMEYLAICDECYITEMEMLLNEKGEFTIETEGKTFQLTKDMINVKRFQKTLYVEEVVPNVIEPSFGLGRIMYTVFEHTFHVREGDEQRTFFSFPAVVAPFKCSVLPLSQNQEFMPFVKELSEALTRHGVSHKVDDSSGSIGRRYARTDEIGVAFGVTIDFDTVNKTPHTATLRDRDSMRQIRAEISELPSIVQDLANGNITWADVEARYPLFEGQETGKKETIEE
notes: Expressed by transfection in mouse NSC-34 cells and tested from the cell lysate; also called wild-type GARS; WT GARS; not shown: V5 tag expressed in-frame from pcDNA6
